# Experimental data: patent US20230295310A1 (ABCELLERA BIOLOGICS, published 2023)
# Experiments:
# [1] = target: T1, cynomolgus monkey CD3 expressed on primary T cells (cynomolgus monkey, UniProt Q95LI5 22-198; Q95LI8 22-171; Q95LI7 23-181); experiment: flow cytometry, 25 nM, cyno primary T cells
# T1 construct: whole, on cells; CD3 complex on purified cynomolgus monkey T cells; also called cyno CD3
# Procedure: Purified antibodies were confirmed to bind CD3 expressed on cells using the CytoFLEX S or LX flow cytometers (Beckman Coulter). Antibodies were diluted to 25 nM in FACS buffer (PBS+2% FBS) and were incubated with CD3-expressing cells for 30 minutes at 4° C. […] The median fluorescence intensity of the binding signal for each antibody was normalized to the isotype control to obtain a fold over isotype value. An antibody with a fold over isotype (FOI) of ≥10 was considered to be positive for binding.
# [2] = target: T2, human CD3 expressed on cells (human, UniProt P07766 23-207; P04234 22-171; P09693 23-182); experiment: flow cytometry, 25 nM
# T2 construct: whole, on cells; CD3 complex on Jurkat cells and on human primary T cells
# Outline: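 Antibodies at 25 nM in PBS + 2% FBS were incubated with CD3-expressing cells for 30 minutes at 4° C and analysed by flow cytometry. Median fluorescence intensity was normalized to isotype control to give fold over isotype (FOI); FOI ≥10 counted as binding.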
# T1 sequence (Q95LI5 22-198, chain 1 of 3): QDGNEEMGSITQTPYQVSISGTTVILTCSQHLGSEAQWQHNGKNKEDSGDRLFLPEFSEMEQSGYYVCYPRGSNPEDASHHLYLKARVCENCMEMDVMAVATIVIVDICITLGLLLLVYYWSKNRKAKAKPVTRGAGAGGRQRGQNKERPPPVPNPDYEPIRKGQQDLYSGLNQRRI
# T1 sequence (Q95LI8 22-171, chain 2 of 3): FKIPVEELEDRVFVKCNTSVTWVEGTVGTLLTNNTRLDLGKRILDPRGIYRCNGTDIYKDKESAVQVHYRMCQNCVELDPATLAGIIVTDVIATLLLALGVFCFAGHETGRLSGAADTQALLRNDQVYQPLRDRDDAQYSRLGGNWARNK
# T1 sequence (Q95LI7 23-181, chain 3 of 3): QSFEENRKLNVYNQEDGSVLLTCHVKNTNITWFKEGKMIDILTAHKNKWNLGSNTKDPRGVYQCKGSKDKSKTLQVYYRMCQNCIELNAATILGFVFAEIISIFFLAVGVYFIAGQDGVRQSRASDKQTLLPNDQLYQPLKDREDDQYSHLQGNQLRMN
# T2 sequence (P07766 23-207, chain 1 of 3): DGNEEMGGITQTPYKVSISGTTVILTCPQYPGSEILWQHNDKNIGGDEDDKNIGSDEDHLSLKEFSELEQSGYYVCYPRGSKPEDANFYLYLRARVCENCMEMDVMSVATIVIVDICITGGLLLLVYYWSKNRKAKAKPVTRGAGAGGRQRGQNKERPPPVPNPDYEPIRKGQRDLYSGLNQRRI
# T2 sequence (P04234 22-171, chain 2 of 3): as the sequence (Q95LI8 22-171, chain 2 of 3) above, with V5I, K15N, V20I, T32S, N33D, N34I, A64T, N74S, L83V, R141H counted along it
# T2 sequence (P09693 23-182, chain 3 of 3): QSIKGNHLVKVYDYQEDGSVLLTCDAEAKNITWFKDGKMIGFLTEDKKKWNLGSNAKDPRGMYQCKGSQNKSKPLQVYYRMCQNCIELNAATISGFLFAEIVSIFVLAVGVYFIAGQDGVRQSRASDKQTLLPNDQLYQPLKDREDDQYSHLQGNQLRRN
Binder,binding result [1],Human primary T Cell Binding (FOI) [2],Jurkat Cell Binding (FOI) [2]
"mAb 111 (antibody, V domains shown) VH: EVQLVESGGVLVKTGGSLRLSCVASGFSFKKAWMNWVRQAPGKGLEWVGRIKRNSDGGAADYAAPVKDRFTLSRDDSKNTLYLQMNSLKTEDTAVYYCTTLDSSSWYVGYYYMDVWGKGTTVTVSS VL: DIHMTQSPSSVSASLGDRVTFTCRASQNINNWLAWYQQKPGKAPKLLIYTASSLQSGVPSRFSGSGSGTDFTLTISSLQPDDFATYYCQQAHSLPITFGQGTRLGIK",no binding (tested: FOI >=10 = positive),168 FOI,160 FOI
"mAb 132 (antibody, V domains shown) VH: DVQLVESGGGTVKTGGSLRLSCVASGFSFKKAWMNWVRQAPGKGLEWVGRIKKNSDGGTADYAAPVKGRFTISRDDSKKTLYLQMNSLQTEDTAVYYCTTLDSSSWYVGYYYMDVWGKGTTVTVSS VL: DIQMTQSPSSVSASVGDRVIITCRASQDINNWLAWYQQKPGIAPKLLIYTASSLQSGVPSRFSGSGSVSDFTLTIGSLQPEDFATYYCQQAHSLPITFGQGTRLEIK",no binding (tested: FOI >=10 = positive),164 FOI,157 FOI
"mAb 117 (antibody, V domains shown) VH: EVQLVESGGGLVKTGGSLRLSCVASGFSFKKAWMNWVRQAPGKGLEWVGRIKRNTDGGTTDYAAPVKGRFTLSRDDSKNTLYLQMNSLKTEDTAVYYCTTLDSSSLYVGYYYMDVWGKGTTVTVSS VL: DIQMTQSPSSVSASVGDRVTITCRASQDINNWLAWYQQKPGKAPKLLIYTASSLQSGVPSRFSGSGSGTDFTLTISSLQPEDFATYYCQQAHSLPITFGQGTRLEIK",no binding (tested: FOI >=10 = positive),170 FOI,155 FOI
"mAb 156 (antibody, V domains shown) VH: EVQLVESGGGLVKTGGSLRLSCVASGFSFKKAWMNWVRQAPGKGLEWVGRIKRNTDGGTADYAAPVKGRFTLSRDDSKKTLFLQMNSLKTEDTAVYYCTTLDSSSYYVGYYYMDVWGKGTTVTVSS VL: DIQMTQSPSSVSASVGDRVIITCRASQDINNWLAWYQQKAGKAPKLLIYTASSLQSGVPSRFSGSGSGTDFTLTIGSLQPEDFATYYCQQAHSLPITFGQGTRLEIK",no binding (tested: FOI >=10 = positive),243 FOI,171 FOI
"mAb 155 (antibody, V domains shown) VH: EVQLVESGGGLVKTGGSLRLSCVASGFSFKKAWMNWVRQAPGKGLEWVGRIKRNTDGGTADYAAPVKGRFTLSRDDSKKTLFLQMNSLKTEDTAVYYCTTLDSSSYYVGYYYMDVWGKGTTVTVSS VL: DIQMTQSPSSVSASVGDRVIITCRASQDINNWLAWYQQKPGKAPKLLIYTASSLQSGVPSRFSGSGSGTDFTLTIGSLQPEDFATYYCQQAHSLPISFGQGTRLDIK",no binding (tested: FOI >=10 = positive),274 FOI,163 FOI
"mAb 116 (antibody, V domains shown) VH: EVQLVESGGGLVKTGGSLRLSCVASGFSFKKAWMNWVRQAPGKGLEWVGRIKRNSDGGTTDYAAPVKGRFTLSRDDSKNTLYLQMNSLKTEDTAVYYCTTLDSSSWYVGYYYMDVWGKGTTVTVSS VL: DIQMTQSPFSVSASVGDRVTITCRASQDINNWLAWYQQKPGKAPKILIYTASSLQSGVPSRFSGSGSGTDFTLTISSLQPEDFATYYCQQAHSLPITFGQGTRLEIK",no binding (tested: FOI >=10 = positive),174 FOI,159 FOI
"mAb 114 (antibody, V domains shown) VH: EVQLVESGGGLVKTGGSLRLSCVASGFSFKKAWMNWVRQAPGKGLEWVGRIKRNTDGGPADYAAPVKGRFTLSRDDSKKTLYLQMNSLKTEDTAVYYCTTLDSSSWYVGYYYMDVWGKGTTVTVSS VL: DIQMTQSPSSVSASVGDRVIITCRASQDINNWLAWYLQRPGKAPKLLIYAASSLQSGVPSRFSGSGSGTDFTLTIGSLQPEDFATYYCQQAHSLPITFGQGTRLEIQ",no binding (tested: FOI >=10 = positive),179 FOI,167 FOI
"mAb 131 (antibody, V domains shown) VH: EVQLVESGGGLVKTGGSLRISCVASGFSFKKAWMNWVRQAPGKGLEWVGRIKRNTDGGTIDYAAPVKGRFSLSRDDSKNTLFLQMNSLKTEDTAVYFCTTLDSSSYYVGYYYMDVWGKGTTVTVSS VL: DIHMTQSPSSVSASVGDRVTITCRASQDINNWLAWYQQKPGKAPKLLIYTASSLQSGVPSRFSGSGSGTDFTLTISSLQPEDFATYFCQQAHSLPITFGQGTRLGIK",no binding (tested: FOI >=10 = positive),171 FOI,155 FOI
"mAb 113 (antibody, V domains shown) VH: EVQLVESGGGLVKTGGSLRLSCVASGFSFKKAWMNWVRQAPGKGLEWVGRIKRNTDGGTTDYAAPVKGRFTLSRDDSKNTLYLQMNSLKTEDTAVYYCTTLDSSSWYVGYYYMDVWGKGTTVTVSS VL: DIQMTQSPSSVSASVGDRVTITCRASQDINNWLAWYQQKPGKAPKILIYTASSLQSGVPSRFSGSGSGTDFTLTISSLQPEDFATYYCQQAHSLPITFGQGTRLEIK",no binding (tested: FOI >=10 = positive),173 FOI,157 FOI
"mAb 123 (antibody, V domains shown) VH: DVQLVESGGGTVKTGGSLRLSCVASGFSFKKAWMNWVRQAPGKGLEWVGRIKKNSDDGTADYAAPVKGRFTISRDDSKRTLFLQMNSLQTEDTAVYYCTTLDSSSWFVGYYYMDVWGKGTTVTVSS VL: DIQMTQSPSSVSASVGDRVIITCRASQDINNWLAWYQQKPGKAPKLLIYTASSLQSGVPSRFSGSGSVSDFTLTIDSLQPEDFATYYCQQAHSLPITFGQGTRLEIK",no binding (tested: FOI >=10 = positive),171 FOI,159 FOI
"mAb 120 (antibody, V domains shown) VH: EVQLVESGGGLVKTGGSLRLSCVASGFSFKKAWMNWVRQAPGKGLEWVGRIKRNTDGGTADYAAPVKGRFTLSRDDSKKTLFLQMNSLKTEDTAVYYCTTLDSSSYYVGYYYMDVWGKGTTVTVSS VL: DIQMTQSPSSVSASVGDRVTITCRASQDINNWLAWYQQKPGKAPKLLIYTASSLQSGVPSRFSGSGSGTDFTLTIGSLQPEDFATYYCQQAHSLPITFGQGTRLEIK",no binding (tested: FOI >=10 = positive),167 FOI,168 FOI
"mAb 112 (antibody, V domains shown) VH: EVQLVESGGGLVKTGGSHRLSCVASGFSFKKAWMNWVRQAPGKGLEWVGRIKRNSDGGTTDYAAPVKGRFILSRDDSKNTLYLQMNSLKTEDTAVYYCTTLDSSSWYVGYYYMDVWGKGTTVTVSS VL: DIQMTQSPSSVSASVGDRVTITCRASQDINNWLAWYQQKPGKAPKILIYTASNLQSGVPSRFSGSGSGTDFTLTISSLQPEDFATYFCQQAHSLPITFGQGTRLEIK",no binding (tested: FOI >=10 = positive),174 FOI,158 FOI
"mAb 115 (antibody, V domains shown) VH: EVQLVESGGGLVKTGGSHRLSCVASGFSFKKAWMNWVRQAPGKGLEWVGRIKRNSDGGTTDYAAPVKGRFILSRDDSKNTLYLQMNSLKTEDTAVYYCTTLDSSSWYVGYYYMDVWGKGTTVTVSS VL: DIQMTQSPSSVSASVGDRVTITCRASQDINNWLAWYQQKPGKAPKILIYTASNLQSGVPSRFSGSGSGTDFTLTISSLQPEDFATYFCQQAHGLPITFGQGTRLEIK",no binding (tested: FOI >=10 = positive),174 FOI,157 FOI
"mAb 125 (antibody, V domains shown) VH: EVQLVESGGGLVKTGGSLRLSCVASGFSFKKAWMNWVRQAPGKGLEWVGRIKRNTDGGTADYAAPVKGRFTLSRDDSKKTLYLQMNSLKTEDTAVYYCTTLDSSSRYVGYYYMDVWGKGTTVTVSS VL: DIQMTQSPSSVSASVGDRVIITCRASQDINNWLAWYQQKPGKVPKLLIYTASSLQSGVPSRFSGSGSGTDFTLTIGTLQPEDFATYYCQQAHSLPITFGQGTRLDIK",no binding (tested: FOI >=10 = positive),180 FOI,185 FOI
"mAb 122 (antibody, V domains shown) VH: EVQLVESGGGLVKTGGSLRLSCVASGFSFKKAWMNWVRQAPGKGLEWVGRIKRNTDGGTADYAAPVKGRFTLSRDDSKKTLYLQMNSLKTEDTAVYYCTTLDSSSRYVGYYYMDVWGKGTTVTVSS VL: DIQMTQSPSSVSASVGDRVIITCRASQDINNWLAWYQQKPGKVPKLLIYTASSLQSGVPSRFSGSGSGTDFTLTIGSLQPEDFATYYCQQAHSLPITFGQGTRLEIK",no binding (tested: FOI >=10 = positive),174 FOI,199 FOI
"mAb 133 (antibody, V domains shown) VH: EVQLVESGGGLVKTGGSLRLSCVASGFSFKKAWMSWVRQAPGKGLEWVGRIKRNTDGGTADYAAPVKGRFTLSRDDSKKTLFLQMNSLKTEDSAVYYCVTLDSSSYYVGYYYMDVWGKGTTVTVSS VL: DIQMTQSPSSVSASVGDRVSITCRASQDINNWLAWYQQKPGKAPKLLIYTASSLQSGVPSRFSGSGSGTDFTLTIGSLQPEDFATYYCQQAHSLPITFGQGTRLEIK",no binding (tested: FOI >=10 = positive),169 FOI,161 FOI
